Two substances from PMC4861311 can be followed below.

The target of assay [1] is CelB tetramer (Pyrococcus β-glucosidase CelB, isolated sample imaged by cryo-EM) (Pyrococcus furiosus) (UniProt Q51723). Briefly: cryo-EM structure.
Assay [2] has as its target bacteriophage P22 coat protein (Salmonella typhimurium bacteriophage P22) (UniProt P26747). Briefly: SEC-MALS. (SEC sorts molecules by how far they enter the pores of the column.)
Chain of UniProt P26747 (P26747 whole entry): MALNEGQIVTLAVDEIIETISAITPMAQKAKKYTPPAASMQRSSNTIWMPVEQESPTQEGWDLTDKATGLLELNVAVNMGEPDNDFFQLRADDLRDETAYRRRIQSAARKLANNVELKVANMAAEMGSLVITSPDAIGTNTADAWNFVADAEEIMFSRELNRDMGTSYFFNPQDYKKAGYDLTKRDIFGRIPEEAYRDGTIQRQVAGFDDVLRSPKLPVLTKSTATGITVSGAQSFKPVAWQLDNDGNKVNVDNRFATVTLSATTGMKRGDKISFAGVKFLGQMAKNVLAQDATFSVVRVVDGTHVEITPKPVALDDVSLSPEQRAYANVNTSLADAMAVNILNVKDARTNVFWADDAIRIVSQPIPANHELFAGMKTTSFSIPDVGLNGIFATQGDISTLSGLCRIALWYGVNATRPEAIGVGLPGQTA

Consider “CelB tetramer (Pyrococcus β-glucosidase CelB, isolated sample imaged by cryo-EM) (from UniProt Q51723 2-472) (enzyme)”, for which the stoichiometry N in assay [1] worked out at 4.
Substance “EGFP fused to N-terminal-truncated P22 scaffold protein” had a #Cargo/capsid in assay [2] of 224 cargo/capsid.

By stoichiometry N is commonly meant a count of units in the complex or per binding partner.
